From patent US20260022144A1, “ANALGESIC POLYPEPTIDE” (Shanghai Puyou Biomedical Co., Ltd., priority 2022, published 2026)

How the values were obtained:
[1] = system: bone pain model induced by Walker 256 breast cancer cells in rats; test: Bone pain model induced by Walker 256 breast cancer cells in rats, mechanical allodynia test; type: in vivo, rat; conditions: Wistar rats; for pain thresholds (50% PWT) of treatment group vs model group: 60 mg/kg i.v. once a day
Experimental: 28 female Wistar rats in total were randomly divided into 3 groups based on body weights, with 8 rats in the Sham group (Group 1, administered with vehicle (normal saline)), 10 rats in the model group (Group 2, administered with vehicle (normal saline)) and 10 rats in the treatment group (Group 3, administered with 60 mg SEQ ID NO: 29/kg).
A summary of the method for inducing bone pain model in rats by means of intratibial injection of a suspension of Walker 256 breast cancer cells is provided hereinafter. Briefly, the rats were anesthetized, then 4 μL of a suspension of Walker 256 cancer cells (containing about 4× 10^5 cells) was injected into the tibia cavity of the right hind limb of the rats (day 0). The rats in Sham group were injected with an equal volume of normal saline.
After injection of cancer cells (day 0), administration was started on the next day (day 1) and performed once a day for a consecutive period of 14 days (day 1, day 2 . . , day 14, respectively).
The rats were subjected to mechanical allodynia tests 1 h before and after administration of the test articles according to the method as recited in Example 1 on day 7 (D7) and day 14 (D14), respectively.

[2] = system: VZV-induced pain model in rats; test: VZV-induced pain model in rats, mechanical allodynia (von Frey) test; type: in vivo, rat; conditions: for 50% PWT (paw withdrawal threshold), analgetic effect: vs placebo
Experimental: A summary of the method for inducing pain model in rats by means of subcutaneous VZV inoculation is provided hereinafter. Briefly, male Sprague Dawley (SD) rats were deeply anesthetized by intraperitoneal injection of a Zoletil R: 50 (30 mg/kg)/xylazine (6 mg/kg) anesthetic at an injection volume of 6 mL/kg, and then the virus inoculation was performed by subcutaneous injection at the footpad area. The infection dose was 22800 TCID50 per animal, and the infection volume was 150 μL for all rats.
Administration was performed on alternate days. Briefly, the test articles were administered by subcutaneous injection at the footpad area on Day 1 and Day 3, respectively. As for Group 2, the administration of SEQ ID NO: 29 was initiated from the first concentration. Namely, the first concentration (10 μg/mL) was administered on Day 1, and the second concentration (20 μg/mL) was administered on Day 3. Pain was measured once after each administration.
Mechanical allodynia tests (also called “von Frey tests”) for pain measurements were performed on the rats one hour after administration of the test articles on Day 1 and Day 3, respectively. In the behavioral test for rats, mechanical allodynia is expressed as the 50% paw withdrawal threshold (PWT), which is calculated according to the following formula:
[formula] • wherein • Xf=final test fiber value used in the test • k=tabular value for the pattern of positive/negative responses (Chaplan et al. 1994, page 62) • δ=mean difference.
Briefly, the rats were placed individually in plexiglass boxes with a grid at the bottom to ensure that the rats' feet could be tested. The rats were acclimated to the environment for 15 minutes prior to the test. After the acclimation was completed, pain (mechanical allodynia) was tested on the center of the sole of the left hind foot of the rats using test fibers. The test fibers included 8 test strengths: 3.61 (0.4 g), 3.84 (0.6 g), 4.08 (lg), 4.31 (2 g), 4.56 (4 g), 4.74 (6 g), 4.93 (8 g) and 5.18 (15 g). During the test, the test fibers were pressed vertically against the skin and forces were applied to bend the fibers for 6-8 seconds with a 5-second interval between each test. During the test, a pain response was recorded if the animals quickly withdrew their feet. The pain response was also recorded if the animal withdrew their feet as the test fibers left the animal's skin. The pain response was not recorded if the animal moved or ambulated, and the test should be repeated. The test was started with 4.31 (2 g). If the animal had pain response, the next test should be performed with a test fiber with a lower strength: if the animal has no pain response, the next test should be performed with a test fiber with a higher strength. The maximum strength of the tested fibers was 5.18 (15 g). The test results were recorded in a table, wherein the presence of pain response was recorded as “x”, and the absence of pain response was recorded as “0”.
The rats were randomly divided into 2 groups, with 8 rats in the placebo group (Group 1, administered with vehicle (normal saline)) and 8 rats in the treatment group (Group 2, administered with 30 mg SEQ ID NO: 29/kg). Briefly, the test articles were administered to the rats on a single day by intravenous injection.
Mechanical allodynia tests were performed on the rats 0.5 h after administration of the test articles according to the method as recited in Example 1, respectively.
The rats were randomly divided into 3 groups, with 8 rats in the placebo group (Group 1, administered with vehicle (normal saline)) and 16 rats in the treatment groups (Groups 2 and 3, 8 rats/group, administered with various polypeptides). Briefly, vehicle (normal saline) was administered to the rats from Group 1 and various polypeptides were administered to the rats from Group 2 (SEQ ID: 29, SEQ ID: 57 and SEQ ID: 49; 10 mg polypeptide/kg) and 3 (SEQ ID: 75 and SEQ ID: 28: 10 mg polypeptide/kg) on a single day by intravenous injection.

B1: SEQ ID NO: 29: exemplary polypeptide of the present disclosure; artificial polypeptide of formula (I) X-Y (protein)
chain: SEKKQPVDLGLLEEDDEFEEFPAEDWAGLDEDEDAHVWEDNWDDDNVEDDFSNQLRATVLLMILVAETPYGAYVLHQKGRMASAFLAA
[1]; 60 mg/kg i.v. once a day for 14 days
  course of pain thresholds (50% PWT) of treatment group vs model group: increased gradually with the increase of the number of administrations
[1]; 1 h after administration on day 7 (D7)
  pain thresholds (50% PWT) of treatment group vs model group: increased significantly
[1]; 1 h after administration on day 14 (D14)
  pain thresholds (50% PWT) of treatment group vs model group: increased significantly
[1]; before administration on day 7 (D7)
  pain thresholds (50% PWT) of treatment group vs model group: no significant difference
[1]; before administration on day 14 (D14)
  pain thresholds (50% PWT) of treatment group vs model group: increased significantly
[2]; 10 mg polypeptide/kg i.v., single administration, tested 0.5 h after administration
  analgetic effect (50% PWT): apparent analgetic effect
[2]; 30 mg/kg i.v., single administration, tested 0.5 h after administration
  50% PWT (paw withdrawal threshold), analgetic effect: significantly increased the 50% PWT values of the rats
[2]; s.c. (footpad) 10 then 20 μg/mL, 50 μL, tested 1 h after administration
  50% PWT (paw withdrawal threshold), analgetic effect: increased the 50% PWT values of the rats in a dose-dependent manner
